Data on four substances can be found in paper PMC9728973.

Experiment [1] concerns the target wild-type (WT) SARS-CoV-2 S-protein trimer (SARS-CoV-2) (UniProt P0DTC2). In words: ELISA.
Experiment [2] has as its target prefusion stabilized SARS-CoV-2 S-protein trimer (SARS-CoV-2) (UniProt P0DTC2). In words: ELISA. For orientation: An ELISA detects its analyte on a solid surface through an enzyme-linked reagent.
Experiment [3] concerns the target wild-type (WT) SARS-CoV-2 S-protein trimer (SARS-CoV-2) (UniProt P0DTC2).
The target of a further experiment is PD-Fc (human) (UniProt Q9BYF1). In words: BLI. In general terms: In BLI a coated tip is dipped into the sample, and binding shifts an interference pattern.
The next experiment deals with PD-CLD-Fc (human) (UniProt Q9BYF1). In words: BLI.
The target in a further experiment is PD-Li-Fc (human) (UniProt Q9BYF1). In words: BLI.
The target in a further experiment is Fc-Li-PD (human) (UniProt Q9BYF1). In words: BLI.

One may read the IC50 as the concentration that gives 50% inhibition. Higher therefore signals a need for much substance. With “PD-CLD-Fc (from UniProt Q9BYF1 18-740) (Fc fusion)”, the figures for the IC50 in experiment [1] and in experiment [2] were 0.1 nM and 10 nM, respectively.
As for “PD-Fc (from UniProt Q9BYF1 18-615) (Fc fusion)”, the IC50 of neutralisation: infection of ACE2-transduced HEK293T cells by SARS-CoV-2 pseudotyped VSV particles (luciferase); S protein on the pseudovirus with cell-surface ACE2 in experiment [3] is 12 nM.
The same measure, in the same setting: under “PD-Li-Fc (from UniProt Q9BYF1 18-615) (Fc fusion)” stands 12 nM.
A word on the Kd: it is the free concentration of one partner at which half of the binding sites on the other are occupied at equilibrium, for simple one-to-one binding. Lower therefore signals tighter binding. On to “S1 monomer (BLI of Fig. 3B) (domain or fragment)”, for which the ratio of the KD for S1 monomer to the KD for S-protein trimer with PD-Fc (human) and with PD-Li-Fc (human) was 3 fold throughout. The Kd in the experiment with PD-CLD-Fc (human) is 11 nM; with Fc-Li-PD (human), 45 nM.
